Laboratory results from patent US6350573B1, “Methods for identifying herbicidal agents that inhibit D1 protease” (E. I. du Pont de Nemours and Company, priority 1998, dated 2002).
Where a SMILES comes first, the peptide text is derived from it. The star is where a group is joined. Cbz = O=C(OCc1ccccc1)*; CH2Cl = ClC*

Experiments:
[1] = tested on: wheat D1 protease; experiment: In vitro high-throughput assay with LF-1 thylakoid membrane fragments containing pre-D1, detecting the mature D1 enzyme product; format: biochemical; conditions: 7 mM Z-LDLA-CMK; D1 protease pre-incubated with it for 1 h at pH 7.0; same assay without inhibitor 0.141 OD; without D1P 0.023 OD
Source text: The assay was capable of detecting both type of products. Because this assay used isolated thylakoid membrane containing the D1 pre-protein substrate the assay could be run at a pH similar to that found in the whole plant.
The PSII-enriched thylakoid membrane fragment was isolated from Scenedesmus LF-1 mutant cells using a mild TRITON X-100-treatment as follows:
Scenedesmus cells were broken in a “bead-beater” (Biospec Products, Bartlesville, Okla.) in an ice-water bath with 1-mm diameter glass beads using 10 bursts of 45 sec each. […]
When using the type 2 HRP conjugated primary antibody […] of colorimetric substrate, TMB (Kirkgaard & Perry Laboratories, Inc., Gaithersburg, Md.) or fluorescent substrate, N-acetyl-3,7-dihydroxyphenoxazine (A6550, Molecular Probes, Inc., Eugene, Oreg.) or chemiluminescence substrate, BM Chemiluminescence ELISA Reagent (Boehringer Mannheim Corp., Indianapolis, Ind.) was added to each well. […] Next the substrate was transfered to a regular plastic 96-well microtiter plate using the manifold and vacuum and then read for absorption or fluorescence or chmiluminescence intensity. […]

[2] = molecular target: D1 pre-protein (unprocessed D1 polypeptide) of the Scenedesmus obliquus LF-1 mutant, in PSII core complexes or thylakoid membrane fragments
[3] = molecular target: T1, internally quenched fluorescent substrate Ac-NAHN(K-Dnp)PLDLAAVE(K-Mca)PSING-OH
T1 chain: AHNKPLDLAAVEKPSING

In the case of `CC(C)C[C@H](NC(=O)OCc1ccccc1)C(=O)N[C@@H](CC(=O)O)C(=O)N[C@@H](CC(C)C)C(=O)N[C@@H](C)C(=O)CCl` [Z-LDLA-CMK, Z-Leu-Asp-Leu-Ala-CH2Cl] (Cbz-LDLA-CH2Cl), the “Type2 AB and TMB, Absorption change, With D1P” value [1] is reported as 0.081 OD.

B1: D1 protease from Scenedesmus obliquus (protein)
chain: VTSEQLLFLEAWRAVDRAYVDKSFNGQSWFKLRETYLKKEPMDRRAQTYDAIRKLLAVLDDPFTRFLEPSRLAALRRGTAGSVTGVGLEITYDGGSGKDVVVLTPAPGGPAEKAGARAGDVIVTVDGTAVKGLSLYDVSDLLQGEADSQVEVVLHAPGAPSNTRTLQLTRQKVTINPVTFTTCSNVAAAALPPGAAKQQLGYVRLATFNSNTTAAAQQAFTELSKQGVAGLVLDIRNNGGGLFPAGVNVARMLVDRGDLVLIADSQGIRDIYSADGNSIDSATPLVVLVNRGTASASEVLAGALKDSKRGLIAGERTFGKGLIQTVVDLSDGSGVAVTVARYQTPAGVDINKIGVSPDVQLDPEVLPTDLEGVCRVLGSDAAPRLFG
With B1 the “microtiter plate ELISA of D1 protease activity (color reaction, percent of pre-D1 cleaved)” value [2] was “the intensity of the color reaction is shown to be proportional to enzyme concentration up to approximately 20% of pre-D1 cleaved”.

B2: wheat D1 protease purified from wheat leaves (Triticum aestivum, var. Fidel) (protein)
chain: LTEENLLFLEAWRAVDRAYYDKSFNGQSWFRYRERALRDDPMNTRQETYAAIKKMLATLDDPFTRLLEPEKFKSLRSGTQGALTGVGLSIGYPLALKGSPAGLSVMSAAPGGPAEKAGIVSGDVILAIDDTSAQDMDIYDAADRLQGPEGSSIDLTILSGADTRHVVLKRERYTLNPVRSRMCEIPGSEDSSKIGYIKLTTFNQNAAGSVKEAIKKLREKNVKAFVLDLRNNSGGLFPEGIEIAKIWMDKGVIVYICDSRGVRDIYEADGASTIAASEPLVVLVNKGTASASEILAGALKDNKRAVVYGEPTYGKGKIQSVFALSDGSGLAVTVARYETPAHTDIDKVGVTPDRPLPASFPTDEDGFCSCLRDPASCNLNAARLFVRS
B2 was tested, and the “fluorescence intensity of the internally quenched substrate (excitation 320 nm, emission 409 nm)” value [3] was “samples containing active enzyme were measured at 3000 fluorescence units”, the Type1 AB and ATTOPHOS (Fluorescence intensity), With D1P [2] was 1070 RU and the Type1 AB and PNP (Absorbance OD 450-650), With D1P [2] was 0.365 OD. The Type2 AB and A6550 (Fluorescence intensity), With D1P [2] was 263 RU, the Type2 AB and BM (Chemiluminescence intensity), With D1P [2] was 33 RU and the Type2 AB and TMB (Absorbance at OD 650-450), With D1P [2] was 0.141 OD. The “fluorescamine fluorescence of the released C-terminal D1-tail, Well with D1 protease” value [2] was 515 ± 10 relative units.

B3: recombinant wheat D1 protease expressed in E. coli from pET-32a(+) (thioredoxin-D1 protease fusion, refolded) (protein)
chain: B2 chain
With B3 the “specific activity in the microtiter plate ELISA assay” value [2] was “The specific activity of the recombinant enzyme, expressed in relative units, is close to that of the natural enzyme isolated from wheat leaves”.
